Experimental data as given in article PMC2646144.
pKd: −log10 of the molar value.

Tests used:
[1] = molecular target: M3-protein heterologously expressed on the surface of S. gordonii GP1221 (SGO M3) (S. pyogenes | not stated); experiment: radioligand binding; about 14 ng 125I-CIV or 125I-CB3 added to 250 µl bacterial suspension (S. gordonii expressing M3), room temperature 45 min, pellet-associated radioactivity as percentage of input
[2] = molecular target: Collagen type IV from human placenta, full length (human) (UniProt P02462); experiment: SPR; BIAcore 2000, CIV or CB3 immobilised on CM5 chip by amine coupling, M3-protein injected at 6.25-50 µg/ml, 10 mM HEPES, 100 mM NaCl, pH 7.4; apparent dissociation constants

## Collagen type IV from human placenta, full length (from UniProt P02462 28-1669; P08572 26-1712) (complex)
[1]
  percent of the 125I-labeled ligand bound: > 80%

## Cyanogen bromide fragment 3 (CB3) of collagen type IV (domain or fragment)
[1]
  percent of the 125I-labeled ligand bound: > 80%

## GST-M3-protein (recombinant streptococcal M-protein type 3) (natural protein)
[2]
  pKd: 8.30
